Laboratory results reported in article PMC5974431.

T1: V1-TRF2, Q15554
T1 chain: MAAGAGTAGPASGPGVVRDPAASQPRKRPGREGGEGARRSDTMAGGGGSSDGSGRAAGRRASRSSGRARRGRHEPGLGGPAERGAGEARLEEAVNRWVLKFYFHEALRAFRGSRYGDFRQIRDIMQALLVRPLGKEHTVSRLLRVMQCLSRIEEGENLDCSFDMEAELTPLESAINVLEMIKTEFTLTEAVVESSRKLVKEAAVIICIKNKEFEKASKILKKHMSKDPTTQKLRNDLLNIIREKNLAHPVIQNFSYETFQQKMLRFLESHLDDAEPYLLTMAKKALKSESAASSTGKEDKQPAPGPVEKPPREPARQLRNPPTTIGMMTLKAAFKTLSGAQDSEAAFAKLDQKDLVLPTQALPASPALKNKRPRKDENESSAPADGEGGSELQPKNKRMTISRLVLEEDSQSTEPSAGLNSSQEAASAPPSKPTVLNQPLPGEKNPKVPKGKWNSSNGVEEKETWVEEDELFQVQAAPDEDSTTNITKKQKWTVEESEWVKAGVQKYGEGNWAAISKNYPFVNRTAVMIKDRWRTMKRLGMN


Biological target: T1, V1-TRF2, Q15554
Test: protein fragment complementation assay (PCA), split Venus
Conditions: chain shown with the change; coexpression by cotransfection; three separate transfections each measured in triplicate; parent: est. 12500; read off a plot

Row | response (fluorescence activity minus background) | Binder
1 | 5900 | TIN2L-V2, Q9BSI4-1 R282H (protein) MATPLVAGPAALRFAAAASWQVVRGRCVEHFPRVLEFLRSLRAVAPGLVRYRHHERLCMGLKAKVVVELILQGRPWAQVLKALNHHFPESGPIVRDPKATKQDLRKILEAQETFYQQVKQLSEAPVDLASKLQELEQEYGEPFLAAMEKLLFEYLCQLEKALPTPQAQQLQDVLSWMQPGVSITSSLAWRQYGVDMGWLLPECSVTDSVNLAEPMEQNPPQQQRLALHNPLPKAKPGTHLPQGPSSRTHPEPLAGRHFNLAPLGRRRVQSQWASTRGGHKEHPTVMLFPFRNLGSPTQVISKPESKEEHAIYTADLAMGTRAASTGKSKSPCQTLGGRALKENPVDLPATEQKENCLDCYMDPLRLSLLPPRARKPVCPPSLCSSVITIGDLVLDSDEEENGQGEGKESLENYQKTKFDTLIPTLCEYLPPSGHGAIPVSSCDCRDSSRPL
2 | 5700 | TIN2L-V2, Q9BSI4-1 D391K; D395K (protein) MATPLVAGPAALRFAAAASWQVVRGRCVEHFPRVLEFLRSLRAVAPGLVRYRHHERLCMGLKAKVVVELILQGRPWAQVLKALNHHFPESGPIVRDPKATKQDLRKILEAQETFYQQVKQLSEAPVDLASKLQELEQEYGEPFLAAMEKLLFEYLCQLEKALPTPQAQQLQDVLSWMQPGVSITSSLAWRQYGVDMGWLLPECSVTDSVNLAEPMEQNPPQQQRLALHNPLPKAKPGTHLPQGPSSRTHPEPLAGRHFNLAPLGRRRVQSQWASTRGGHKERPTVMLFPFRNLGSPTQVISKPESKEEHAIYTADLAMGTRAASTGKSKSPCQTLGGRALKENPVDLPATEQKENCLDCYMDPLRLSLLPPRARKPVCPPSLCSSVITIGKLVLKSDEEENGQGEGKESLENYQKTKFDTLIPTLCEYLPPSGHGAIPVSSCDCRDSSRPL
